Laboratory results: article PMC3351151 (Nucleic Acids Research, 2012)

Biological target: the molecule itself
Test: crystal structure

B1: His-HypR (His-tagged HypR, wild type), oxidized by diamide or NaOCl (natural protein, B. subtilis, UniProt P37486 1-125, looked up)
chain: MSEKKNIYPNKEGCPVEFTLDVIGGKWKGILFYHMIDGKKRFNEFRRICPSITQRMLTLQLRELEADGIVHREVYHQVPPKVEYSLTEFGRTLEPIVLQMKEWGESNRDVLESYRSNGLVKDQQK
modifications: Cys14-Cys49' intersubunit disulphide after oxidation with diamide or NaOCl
- stoichiometry N: 2
